The target in the data set is Mtb UvrD1 WT (Mycobacterium tuberculosis H37Rv, UniProt P9WMQ1 1-771). Briefly: tryptophan fluorescence dissociation kinetics.
Sequence of Mtb UvrD1 WT (P9WMQ1 whole entry): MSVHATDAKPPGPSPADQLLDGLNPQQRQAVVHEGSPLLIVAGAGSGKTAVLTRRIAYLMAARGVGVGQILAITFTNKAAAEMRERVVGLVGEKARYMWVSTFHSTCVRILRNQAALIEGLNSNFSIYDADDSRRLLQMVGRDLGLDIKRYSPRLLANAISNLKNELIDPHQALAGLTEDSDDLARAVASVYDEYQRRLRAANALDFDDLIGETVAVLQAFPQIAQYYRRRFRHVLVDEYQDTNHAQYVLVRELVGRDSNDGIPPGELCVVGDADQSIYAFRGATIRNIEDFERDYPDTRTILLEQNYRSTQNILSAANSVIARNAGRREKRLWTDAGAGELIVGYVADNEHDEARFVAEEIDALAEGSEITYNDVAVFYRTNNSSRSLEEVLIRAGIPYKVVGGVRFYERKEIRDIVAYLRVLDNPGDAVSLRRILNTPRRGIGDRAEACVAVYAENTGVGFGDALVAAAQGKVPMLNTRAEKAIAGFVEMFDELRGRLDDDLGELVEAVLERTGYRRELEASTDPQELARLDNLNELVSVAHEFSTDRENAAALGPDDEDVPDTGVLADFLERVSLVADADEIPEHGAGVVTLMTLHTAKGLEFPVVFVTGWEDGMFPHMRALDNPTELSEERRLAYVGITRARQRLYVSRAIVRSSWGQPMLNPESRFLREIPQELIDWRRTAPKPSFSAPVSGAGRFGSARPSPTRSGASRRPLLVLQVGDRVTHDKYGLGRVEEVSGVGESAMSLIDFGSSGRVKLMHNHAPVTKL

B1: (dT)100 (ssDNA)
DNA: TTTTTTTTTTTTTTTTTTTTTTTTTTTTTTTTTTTTTTTTTTTTTTTTTTTTTTTTTTTTTTTTTTTTTTTTTTTTTTTTTTTTTTTTTTTTTTTTTTTT
Regarding B1, the binding result is reported as “binds”.

The values are drawn from article PMC8872793.
